Experiments:
[1] = test system: CCCCCCCCCC(=O)SCCNC(=O)CCNC(=O)[C@H](O)C(C)(C)COP(=O)(O)OP(=O)(O)OC[C@H]1O[C@@H](n2cnc3c(N)ncnc32)[C@H](O)[C@@H]1OP(=O)(O)O; test: purified protein
[2] = test system: CCCCCCCCCCCCCCCC(=O)SCCNC(=O)CCNC(=O)[C@H](O)C(C)(C)COP(=O)(O)OP(=O)(O)OC[C@H]1O[C@@H](n2cnc3c(N)ncnc32)[C@H](O)[C@@H]1OP(=O)(O)O; test: purified protein
[3] = molecular target: T1, Rv3802 (Mycobacterium tuberculosis, UniProt O53581); test: […]; TLC of […]-palmitoyl-CoA hydrolysis; format: biochemical
T1 construct: gene cut6
T1 sequence (O53581 37-336): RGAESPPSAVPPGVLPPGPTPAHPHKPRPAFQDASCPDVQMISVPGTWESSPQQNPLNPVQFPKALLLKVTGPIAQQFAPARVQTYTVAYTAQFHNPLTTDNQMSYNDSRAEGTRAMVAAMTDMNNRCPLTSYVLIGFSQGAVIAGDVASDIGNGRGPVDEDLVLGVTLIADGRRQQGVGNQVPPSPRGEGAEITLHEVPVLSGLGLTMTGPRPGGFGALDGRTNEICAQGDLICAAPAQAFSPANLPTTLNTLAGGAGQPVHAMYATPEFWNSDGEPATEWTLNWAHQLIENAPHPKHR

Row | Compound | Km [1] | kcat [1] | kcat/Km [1] | Km [2] | Ki [3]
1 | Rv3802 (Mycobacterium tuberculosis H37Rv) | 2280 µM | 0.0845 ± 0.0253 s⁻¹ | 37 ± 11.1 M⁻¹ s⁻¹ | 17 µM | 
2 | CCCCCCCCCCC[C@@H](C[C@@H]1OC(=O)[C@H]1CCCCCC)OC(=O)[C@H](CC(C)C)NC=O [THL, tetrahydrolipstatin] |  |  |  |  | 5 nM
